Experimental findings from US20250326817A1 (LA JOLLA INSTITUTE FOR IMMUNOLOGY, published 2025) are described below.

Sequences and labels used below:
T1: mouse LIGHT, full length, on transfected cells (mouse, UniProt Q9QYH9 1-239)
T1 construct: whole, on cells; also called mLIGHT; mLIGHT-IRES-EGFP
T1 sequence (looked up): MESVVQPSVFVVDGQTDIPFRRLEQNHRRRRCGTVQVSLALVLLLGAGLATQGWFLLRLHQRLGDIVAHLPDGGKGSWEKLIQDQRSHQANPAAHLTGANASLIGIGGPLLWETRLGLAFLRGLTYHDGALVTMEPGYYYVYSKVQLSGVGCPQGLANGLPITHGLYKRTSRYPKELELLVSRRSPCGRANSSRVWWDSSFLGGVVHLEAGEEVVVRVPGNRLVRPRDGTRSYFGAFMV

T2: mouse BTLA, full length, fused to EGFP, on HEK293 FreeStyle cells (mouse, UniProt Q7TSA3 30-306)
T2 construct: whole, on cells; also called mBTLA; mBTLA-EGFP; not shown: EGFP fused at the C-terminus (pEGFP-N1 vector)
T2 sequence (looked up): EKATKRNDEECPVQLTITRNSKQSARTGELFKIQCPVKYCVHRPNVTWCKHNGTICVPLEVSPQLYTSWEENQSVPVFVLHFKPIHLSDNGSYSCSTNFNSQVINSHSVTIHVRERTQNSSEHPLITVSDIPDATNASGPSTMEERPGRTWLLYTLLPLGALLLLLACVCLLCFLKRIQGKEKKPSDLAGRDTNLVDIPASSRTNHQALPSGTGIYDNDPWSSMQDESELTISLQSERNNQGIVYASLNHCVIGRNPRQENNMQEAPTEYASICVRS

T3: mouse BTLA, soluble protein (analyte of the Octet assay) (mouse, UniProt Q7TSA3 30-183, limits assumed)
T3 construct: The construct is not described; also called mBTLA; mBTLA-penta-His-tag
T3 sequence (looked up): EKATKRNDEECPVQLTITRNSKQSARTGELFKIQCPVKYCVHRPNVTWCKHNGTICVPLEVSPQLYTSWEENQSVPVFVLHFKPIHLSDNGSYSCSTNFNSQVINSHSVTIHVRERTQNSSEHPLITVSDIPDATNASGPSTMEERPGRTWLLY

T4: mouse CD160 residues I30-H154 with C-terminal …, refolded from E. coli inclusion bodies (mouse, UniProt O88875 30-154, biotin (mCD160-biotin in the cell staining assay; site not stated))
T4 construct: range 30-154; also called mCD160; mCD160-biotin
T4 sequence: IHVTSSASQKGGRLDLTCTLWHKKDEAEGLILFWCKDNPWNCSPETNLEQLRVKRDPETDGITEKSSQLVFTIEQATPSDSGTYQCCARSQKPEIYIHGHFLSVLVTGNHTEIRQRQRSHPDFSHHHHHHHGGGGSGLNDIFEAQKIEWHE

B1: mouse HVEM, wild type, full length, fused to mCherry, on HEK293 FreeStyle cells (receptor)
chain: QPSCRQEEFLVGDECCPMCNPGYHVKQVCSEHTGTVCAPCPPQTYTAHANGLSKCLPCGVCDPDMGLLTWQECSSWKDTVCRCIPGYFCENQDGSHCSTCLQHTTCPPGQRVEKRGTHDQDTVCADCLTGTFSLGGTQEECLPWTNCSAFQQEVRRGTNSTDTTCSSQVVYYVVSILLPLVIVGAGIAGFLICTRRHLHTSSVAKELEPFQEQQENTIRFPVTEVGFAETEEETASN
notes: also called mHVEM; WT mHVEM; not shown: mCherry fused at the C-terminus (pmCherry-N1 vector)
B2: G72A-V74D (receptor)
chain: B1 chain with G34A, V36D
notes: on HEK293 FreeStyle cells; also called mHVEM G72A-V74D; not shown: mCherry reporter (and any vector linker) fused at the cytoplasmic C-terminus (pmCherry-N1)
B3: G72D-V74D (receptor)
chain: B1 chain with G34D, V36D
notes: on HEK293 FreeStyle cells; also called mHVEM G72D-V74D; not shown: mCherry reporter (and any vector linker) fused at the cytoplasmic C-terminus (pmCherry-N1)
B4: G72D-V74A (receptor)
chain: B1 chain with G34D, V36A
notes: on HEK293 FreeStyle cells; also called mHVEM G72D-V74A; not shown: mCherry reporter (and any vector linker) fused at the cytoplasmic C-terminus (pmCherry-N1)
B5: A76D_H86D_L90A (receptor)
chain: B1 chain with A38D, H48D, L52A
notes: on HEK293 FreeStyle cells; also called mHVEM A76D-H86D-L90A; not shown: mCherry fused at the C-terminus (pmCherry-N1 vector) and any vector linker
B6: mouse HVEM G72R-V74A double mutein, full length, fused to mCherry, on cells (receptor)
chain: B1 chain with G34R, V36A
notes: also called mHVEM G72R-V74A; mHVEM^-BT/160; not shown: mCherry fused at the C-terminus (pmCherry-N1 vector)
B7: H86A-L90A (receptor)
chain: B1 chain with H48A, L52A
notes: on HEK293 FreeStyle cells; also called mHVEM H86A-L90A; not shown: mCherry reporter (and any vector linker) fused at the cytoplasmic C-terminus (pmCherry-N1)
B8: G72D-V74R (receptor)
chain: B1 chain with G34D, V36R
notes: on HEK293 FreeStyle cells; also called mHVEM G72D-V74R; not shown: mCherry reporter (and any vector linker) fused at the cytoplasmic C-terminus (pmCherry-N1)
B9: H86D-L90R (receptor)
chain: B1 chain with H48D, L52R
notes: on HEK293 FreeStyle cells; also called mHVEM H86D-L90R; not shown: mCherry reporter (and any vector linker) fused at the cytoplasmic C-terminus (pmCherry-N1)
B10: H86D-L90D (receptor)
chain: B1 chain with H48D, L52D
notes: on HEK293 FreeStyle cells; also called mHVEM H86D-L90D; not shown: mCherry reporter (and any vector linker) fused at the cytoplasmic C-terminus (pmCherry-N1)
B11: mouse HVEM A76D, full length, fused to mCherry, on cells (receptor)
chain: B1 chain with A38D
notes: also called mHVEM A76D; not shown: mCherry fused at the C-terminus (pmCherry-N1 vector)
B12: H86R-L90A (receptor)
chain: B1 chain with H48R, L52A
notes: on HEK293 FreeStyle cells; also called mHVEM H86R-L90A; not shown: mCherry reporter (and any vector linker) fused at the cytoplasmic C-terminus (pmCherry-N1)
B13: A76D_H86D_L90D (receptor)
chain: B1 chain with A38D, H48D, L52D
notes: on HEK293 FreeStyle cells; also called mHVEM A76D-H86D-L90D; not shown: mCherry fused at the C-terminus (pmCherry-N1 vector)
B14: mouse HVEM H86D-L90A double mutein, full length, fused to mCherry, on cells (receptor)
chain: B1 chain with H48D, L52A
notes: also called mHVEM H86D-L90A; mHVEM^-LIGHT; not shown: mCherry fused at the C-terminus (pmCherry-N1 vector)
B15: mouse HVEM R43D-M56A-K64D triple mutation, full length, fused to mCherry, on cells (receptor)
chain: B1 chain with R5D, M18A, K26D
notes: also called mHVEM R43D-M56A-K64D; not shown: mCherry fused at the C-terminus (pmCherry-N1 vector)
B16: mouse HVEM G72D, full length, fused to mCherry, on cells (receptor)
chain: B1 chain with G34D
notes: also called mHVEM G72D; not shown: mCherry fused at the C-terminus (pmCherry-N1 vector)
B17: mouse HVEM V74D, full length, fused to mCherry, on cells (receptor)
chain: B1 chain with V36D
notes: also called mHVEM V74D; not shown: mCherry fused at the C-terminus (pmCherry-N1 vector)
B18: mouse HVEM M56D, full length, fused to mCherry, on cells (receptor)
chain: B1 chain with M18D
notes: also called mHVEM M56D; not shown: mCherry fused at the C-terminus (pmCherry-N1 vector)
B19: mouse HVEM R43D, full length, fused to mCherry, on cells (receptor)
chain: B1 chain with R5D
notes: also called mHVEM R43D; not shown: mCherry fused at the C-terminus (pmCherry-N1 vector)
B20: mouse HVEM L94A, full length, fused to mCherry, on cells (receptor)
chain: B1 chain with L56A
notes: also called mHVEM L94A; not shown: mCherry fused at the C-terminus (pmCherry-N1 vector)
B21: mouse HVEM L94D, full length, fused to mCherry, on cells (receptor)
chain: B1 chain with L56D
notes: also called mHVEM L94D; not shown: mCherry fused at the C-terminus (pmCherry-N1 vector)
B22: mouse HVEM H86D, full length, fused to mCherry, on cells (receptor)
chain: B1 chain with H48D
notes: also called mHVEM H86D; not shown: mCherry fused at the C-terminus (pmCherry-N1 vector)
B23: mouse HVEM L90A, full length, fused to mCherry, on cells (receptor)
chain: B1 chain with L52A
notes: also called mHVEM L90A; not shown: mCherry fused at the C-terminus (pmCherry-N1 vector)

Residue numbers refer to the chain shown, from its start. Numbers in names are those of the source.

One experiment has as its target T1, mouse LIGHT, full length, on …. Briefly: cell-cell flow cytometry (mHVEM-mCherry cells + mLIGHT-IRES-EGFP cells). The method, then: (§1) After 2˜3 days, the cells were harvested and diluted to […]. […] These cells were further recorded and analyzed by flow cytometry. […] The cells were incubated for 30 min with shaking at room temperature and washed once by PBS containing 0.2% BSA (PBS-BSA). The cells were re-suspended in 100 uL of PBS-BSA and analyzed by flow cytometry.
Background: Flow cytometry measures light scatter and fluorescence of single cells or particles in a stream.
In the case of B1, the binding result is “binds”.

For B2, the binding result is given as “binds”.

For B3, the binding result is recorded as “binds”.

On to B4, for which the binding result was “binds”.

On to B5, for which the binding result is recorded as “no binding”.

B6: the binding result is reported as “binds”.

For B7, the binding result is reported as “no binding”.

B8: the binding result is listed as “binds”.

As for B9, the binding result was “no binding”.

On to B10, for which the binding result is recorded as “no binding”.

B11: the binding result was “binds”.

With B12, the binding result was “no binding”.

Regarding B13, the binding result is “no binding”.

The next experiment deals with T2, mouse BTLA, full length, fused to EGFP, …. The experiment can be described thus: cell-cell flow cytometry (mHVEM-mCherry cells + mBTLA-EGFP cells). As to the method: as §1
Consider B1, for which the binding result is on record as “binds”.

For B2, the binding result is reported as “no binding”.

For the molecule B3, the binding result is recorded as “no binding”.

For B4, the binding result was “no binding”.

For B5, the binding result is on record as “binds”.

B6: the binding result was “no binding”.

Take B7: the binding result is recorded as “binds”.

Consider B8, for which the binding result is “no binding”.

For B9, the binding result is listed as “binds”.

Take B10: the binding result is recorded as “binds”.

For B11, the binding result was “binds”.

In the case of B12, the binding result is “binds”.

As to B13, the binding result is listed as “binds”.

Turning to B14, the binding result is “binds”.

The next experiment addresses T3, mouse BTLA, soluble protein (analyte of …). The experiment can be described thus: cell-protein flow cytometry (mHVEM-mCherry cells + mBTLA-His/anti-His green). As to the method: as §1
For B2, the binding result is “no binding”.

Turning to B15, the binding result is “no binding”.

Take B3: the binding result was “no binding”.

For the molecule B4, the binding result is given as “no binding”.

For B6, the binding result is recorded as “no binding”.

B8: the binding result is reported as “no binding”.

In a further experiment the target is T1, mouse LIGHT, full length, on …. Briefly: flow cytometry, cell-cell interaction assay. As to the method:
as §1
On to B16, for which the binding result is reported as “binds”.

Consider B17, for which the binding result was “binds”.

As for B18, the binding result is listed as “binds”.

For the molecule B19, the binding result is on record as “binds”.

Another experiment addresses T2, mouse BTLA, full length, fused to EGFP, …. The experiment can be described thus: flow cytometry, cell-cell interaction assay. The method, then:
as §1
With B20, the binding result was “binds”.

For B21, the binding result is given as “binds”.

For B18, the binding result is recorded as “binds”.

Consider B22, for which the binding result is “binds”.

As for B23, the binding result is listed as “binds”.

B19: the binding result was “binds”.

In another experiment the target is T4, mouse CD160 residues I30-H154 with …. Briefly: cell-protein flow cytometry (mHVEM-mCherry cells + mCD160-biotin/streptavidin-AF488). As to the method: as §1
Turning to B2, the binding result was “no binding”.

For B3, the binding result was “no binding”.

In the case of B4, the binding result was “no binding”.

On to B5, for which the binding result is reported as “no binding”.

As to B6, the binding result is reported as “no binding”.

On to B7, for which the binding result is recorded as “binds”.

Regarding B8, the binding result is reported as “no binding”.

For the molecule B9, the binding result is “binds”.

For the molecule B10, the binding result is “binds”.

B12: the binding result was “binds”.

With B14, the binding result is on record as “binds”.
